Laboratory results published in patent US20260055441A1, “A PCR-ELISA ANALOGOUS ANTIBODY-FREE METHOD FOR DETECTING A TARGET NUCLEIC ACID IN A SAMPLE” (UNIVERSITÄT HEIDELBERG, priority 2022, published 2026).
No end group written: not given here.

Biological target: T1, latent papain, reversibly inactivated with S-methyl methanethiosulfonate (-S-S-CH3) (Carica papaya, UniProt P00784 134-345, catalytic Cys25 blocked as mixed disulfide -S-S-CH3)
T1 sequence: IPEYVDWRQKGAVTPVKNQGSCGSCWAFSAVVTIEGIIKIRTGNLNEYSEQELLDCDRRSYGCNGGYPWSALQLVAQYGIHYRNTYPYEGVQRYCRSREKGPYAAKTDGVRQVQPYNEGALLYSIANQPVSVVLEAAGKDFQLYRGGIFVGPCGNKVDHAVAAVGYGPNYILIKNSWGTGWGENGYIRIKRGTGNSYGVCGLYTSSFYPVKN
Experiment: cell-based or functional assay

Binder: H-CLRG-OH [H2N-CLRG-COOH]
- normalized ratio rate/rate cysteine ethyl ester after reactivation of latent papain P13 (1 nM), activator 50 nM: 0.51 rate/rate cysteine ethyl ester

Binder: H-GLCLRG-OH (not fully specified) [H2N-G-L-C-L-R-G-COOH]
- normalized ratio rate/rate cysteine ethyl ester after reactivation of latent papain P13 (1 nM), activator 50 nM: < 1 rate/rate cysteine ethyl ester

Binder: H-SECLRG-OH [H2N-S-E-C-L-R-G-COOH]
- normalized ratio rate/rate cysteine ethyl ester after reactivation of latent papain P13 (1 nM), activator 50 nM: < 1 rate/rate cysteine ethyl ester

Binder: H-EGCGRG-OH [H2N-E-G-C-G-R-G-COOH]
- normalized ratio rate/rate cysteine ethyl ester after reactivation of latent papain P13 (1 nM), activator 50 nM: < 1 rate/rate cysteine ethyl ester

Binder: H-GKCLRG-OH [H2N-G-K-C-L-R-G-COOH]
- normalized ratio rate/rate cysteine ethyl ester after reactivation of latent papain P13 (1 nM), activator 50 nM: < 1 rate/rate cysteine ethyl ester

Binder: H-FVCEKG-OH [H2N-F-V-C-E-K-G-COOH]
- normalized ratio rate/rate cysteine ethyl ester after reactivation of latent papain P13 (1 nM), activator 50 nM: < 1 rate/rate cysteine ethyl ester

Binder: H-Cys-Leu-Arg-NH2 [H2N-CLR-CONH2]
- normalized ratio rate/rate cysteine ethyl ester after reactivation of latent papain P13 (1 nM), activator 50 nM: 1.81 rate/rate cysteine ethyl ester
- reaction rate after reactivation of latent papain P13 (1 nM), concentration series 50 nM-10 uM, against free cysteine: ~4 fold of free cysteine

Binder: H-GGCGGG-OH [H2N-G-G-C-G-G-G-COOH]
- normalized ratio rate/rate cysteine ethyl ester after reactivation of latent papain P13 (1 nM), activator 50 nM: < 1 rate/rate cysteine ethyl ester

Binder: H-CLRCG-OH (cysteine pairing not given here) [H2N-CLRCG-COOH]
- normalized ratio rate/rate cysteine ethyl ester after reactivation of latent papain P13 (1 nM), activator 50 nM: 0.99 rate/rate cysteine ethyl ester

Binder: H-CLRG-NH2 [H2N-CLRG-CONH2]
- normalized ratio rate/rate cysteine ethyl ester after reactivation of latent papain P13 (1 nM), activator 50 nM: 1.29 rate/rate cysteine ethyl ester

B1: dU-triazole-PEG3-ULR dimer (21) (peptide)
peptide: X-Leu-Arg-NH2
modifications: not fully specified (residue 1, N-terminus); printed as dU-triazole-PEG3-ULR; also: diselenide dimer
- normalized ratio rate/rate blank, P20 against P28: 2 fold of the normalized rate of P28
- normalized ratio rate/rate blank, activator at half equimolar concentration of papain (printed 500 µM; papain 1 nM): 33 fold of the background activity
- normalized ratio rate/rate blank, activator at the lowest concentration (printed 50 µM; series starts at 50 pM): 4 fold of the background activity
- reaction rate after reactivation of latent papain (1 nM), activator 10 nM, against DTBA (9): 23 fold of the rate with DTBA (9)
- reaction rate after reactivation of latent papain (1 nM), activator 10 nM, against DTT: 159 fold of the rate with DTT
- reaction rate after reactivation of latent papain (1 nM), activator 50 nM, against DTBA (9): 9 fold of the rate with DTBA (9)
- reaction rate after reactivation of latent papain (1 nM), activator 50 nM, against DTT: 128 fold of the rate with DTT
